These results are taken from patent US20160053014A1 (SORRENTO THERAPEUTICS, published 2016).

T1: human CXCR5 (human, UniProt P32302 1-372)
T1 construct: whole, on cells; also called hu-CHO; CHO-CXCR5 cells
T1 sequence (looked up): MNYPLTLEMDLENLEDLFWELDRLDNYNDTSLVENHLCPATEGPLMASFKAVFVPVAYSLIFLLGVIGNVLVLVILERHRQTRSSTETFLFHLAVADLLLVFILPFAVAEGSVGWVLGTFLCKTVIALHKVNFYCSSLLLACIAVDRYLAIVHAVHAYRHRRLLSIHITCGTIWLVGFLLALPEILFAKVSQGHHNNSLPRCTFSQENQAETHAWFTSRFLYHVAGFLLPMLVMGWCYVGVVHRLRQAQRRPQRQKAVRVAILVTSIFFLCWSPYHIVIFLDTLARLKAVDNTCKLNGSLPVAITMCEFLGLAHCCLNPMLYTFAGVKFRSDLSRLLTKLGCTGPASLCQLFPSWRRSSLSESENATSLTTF

B1: 52A10 (antibody, V domains shown)
VH: QVQLVQSGAEVKKPGASVKVSCKASGYTFTSYGISWVRQAPGQGLEWVGWISAYNGNTNYAQKLQGRVTMTTDTSTSTAYMELRSLRSDDTAVYYCARGSDYWGQGTLVTVSS
VL: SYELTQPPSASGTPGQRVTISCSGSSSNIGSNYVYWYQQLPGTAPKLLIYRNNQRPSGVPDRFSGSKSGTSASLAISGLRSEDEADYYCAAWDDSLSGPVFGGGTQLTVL
notes: tested as human IgG
B2: 13G9 (antibody, V domains shown)
VH: EVQLVESGGGVVQPGRSLRLSCAASGFTFSRYGMHWVRQSPGKGLEWVAGISYDGSDKYYADSVKGRFTISRANSKNTLFLQMNSLRAEDTAVYYCARARGLDYWGQGTTVTVSS
VL: QAVLTQPASVSGSPGQSITISCTGTSSDIGSYNLVSWYQQHPGKAPKLIIYEVNKRPSGVSNRFSGSKSGNTASLTISGLQAEDEADYYCSSYRSINTVVFGGGTQLTVL
notes: tested as human IgG
B3: 14B11 (antibody, V domains shown)
VH: QVQLVESGGGVVQPGMSLRLSCAASGFTFSSHAMHWVRQAPGKGLEWVAQIWSDGSNRYYSDSVKGRFTISRDQSKNTVSLQMNSLRAEDTAVYFCARDGQSMAPYAMDVWGQGTMVTVSS
VL: DIVMTQTPLSLPVTPGEPASISCRSSQSLLHKNGNNYLDWYLQRPGQSPQLLIYLASNRASGVPDRFSGSGSGTDFTLEISRVQPEDVGVYYCMQGLQTPTFGPGTKVEIK
notes: tested as human IgG
B4: 14D9 (antibody, V domains shown)
VH: EVQLVESGGGVVQPGRSLRLSCAASGFTFSSYAMHWVRQAPGKGLEWVAVISYDGSNKYYADSVKGRFTISRDNSKNTLYLQMNSLRAEDTAVYYCARSAWLDSWGQGTLVTVSS
VL: QAGLTQPHSVSGSPGQSVTISCTGTSSDVGSYNHVSWYQQHPGKAPKLMIYDVSKRPSGVSNRFSGSKSGNTASLTISGLQAEDEADYYCSSYTSSSTYVFGTGTKVTVL
notes: tested as human IgG
B5: 15H2 (antibody, V domains shown)
VH: EVQLVESGGGVVQPGRSLRLSCAASGFTFSSYAMHWVRQAPGKGLEWVAVISYDGSKKYYADSVKGRFTISRDNSKNTLYLQMNSLRAEDTAVYYCARVGIAAAVGMDVWGQGTTVTVSS
VL: DIVMTQTPLSLPVTLGQPASISCRSSQSLVYRDGNTYLNWFQQRPGQSPRRLIYKVSNRDSGVPDRFSGSGSGTDFTLKISRVEAEDVGVYYCMQGTHWPLTFGQGTKVEI
notes: tested as human IgG; 181/182 '15H2' while the text calls the same pair '15H12'; also called 15H12
B6: 14F11 (antibody, V domains shown)
VH: EVQLVQSGAEVKKPGASVKVSCKASGSTFTNYYIHWVRQAPGQGLEWMGIINPSGGSIGSPQKFQGRVTMTRDTSTNTVYMELSSLRSEDTAVYYCASRSFGNDGVFDIWGQGTMVTVSS
VL: LPVLTQPRSVSGSPRQSVTISCTGTSSDVGGYNYVSWYQQHPGKAPKLMIYDVSKRPSGVPDRFSGSKSGNTASLTISGLQAEDEAHYYCKSYTTSRTWVFGGGTKLTVL
notes: tested as human IgG
B7: 14D7 (antibody, V domains shown)
VH: QVQLVQSGGGVVQPGRSLRLSCAASGFTFSSYGMHWVRQAPGKGLEWVAVISYDGSNKYYADSVKGRFTISRDNSKNTLYLQMNSLRAEDTAVYYCAKWGRRGAPDYWGQGTLVTVSS
VL: ETTLTQSPGTLSVSPGERATLSCRASQSVSSNLAWYQQKPGQAPRLLIYGASTRATGIPARFSGSGSGTDFTLTISSLEPEDFAVYYCQQRNNWPLTFGGGTKVEIK
notes: tested as human IgG
B8: 14C11 (antibody, V domains shown)
VH: QVQLQQSGPGLVKPSQTLSLTCAISGDTVSTNRAAWYWIRQSPSRGLEWLGRTHYRSRWLNDYAPSVKSRITINPDTSKNQFSLQLNSVTPEDTAVYYCARGAAGRAFDIWGQGTLVTVSS
VL: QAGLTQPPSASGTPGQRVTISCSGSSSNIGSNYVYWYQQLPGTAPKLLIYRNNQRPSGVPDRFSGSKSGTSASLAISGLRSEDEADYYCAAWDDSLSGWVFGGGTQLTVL
notes: tested as human IgG
B9: 16A8 (antibody, V domains shown)
VH: QVQLVESGGGVVQPGRSLRLSCAASGFTFSNYGMHWVRQAPGKGLEWVATISYDGSNNYYAASVKGRFTVSRDNSTLYLQMNSLRAEDTAVYYCAGAIAAAGVWGQGTLVTVSS
VL: LPVLTQPASVSGSPGQSITISCTGTSSDVGGYNYVSWYQQHPGKAPKLMIYDVSNRPSGVSDRFSGSKSGNTASLNISGLQPDDEAEYYCSSYRTKNTLVFGGGTKLTVL
notes: tested as human IgG

Values joined by “and” are separate entries in the source; they are usually repeats but may differ in a detail not shown here. Equal values may be shown once.

The target in the assay is T1, human CXCR5. The assay can be described thus: flow cytometry on CHO-CXCR5 cells, IgG titration. The source says: This example describes a cellular binding assay to determine the EC₅₀ for anti-CXCR5 antibodies binding to human CXCR5. […] In this example, CHO-CXCR5 cells were lifted from culture flasks using non-enzymatic Cell Dissociation Buffer—PBS based (Life Technologies #13151-014). Cells were resuspended in FACS Buffer (2% Fetal Bovine Serum in PBS) at 1×10⁶ cells/ml and […] were aliquoted into the wells of a 96-well plate. Plated cells were spun down and the supernatant discarded. Cells were resuspended in 30 μl FACS Buffer serially diluted concentrations of CXCR5 IgG in triplicate. Plates were incubated for 1 hr at 4° C. and then washed 2× with FACS Buffer. Cells were resuspended in 50 μl goat anti-human IgG (γ-chain specific)-PE conjugated secondary antibody (Southern Biotech #2040-09) diluted 1:500 in FACS Buffer. Cells were further incubated for 30 min at 4° C. and then washed 1× with FACS Buffer. The cells were resuspended in a final volume of 30 μl FACS Buffer and analyzed using the Intellicyt Flow Cytometer. Median fluorescence in the FL-2H channel was determined using FlowJo software and EC₅₀ value was determined by plotting the data in GraphPad Prism and analyzing using a variable slope non-linear regression.
(In general: A flow cytometer gives signals particle by particle.)
For orientation: EC50 means the concentration needed to bring the measured effect to its halfway point. B1: the EC50 is 0.5 nM and 0.54 nM.

With B2, the midpoint of the response, the EC50, lay at 3 nM.

Take B3: it took 10 nM to reach a half-maximal effect (EC50).

B4 displayed an EC50 of 22 nM.

B5 showed an EC50 of 6.1 nM.

In turn, B6 gave an EC50 of 3.8 nM.

Molecule B7 had an EC50 of 4 nM. This EC50 and that of the molecule before are within 1.5-fold of each other.

For B8, the EC50 turned out to be 21 nM.

B9 showed a half-maximal effective concentration (EC50) of 2.3 nM.
